These results are taken from patent US20090202532A1 (TOHOKU UNIVERSITY, published 2009).

The test concerns the target human EGF receptor 1 (human, UniProt P00533 25-1210). In words: cell-based or functional assay.

B1: Ex3 scFv-Fc, IgG-type bispecific antibody of OHL-Fc and 5HL-CL (bispecific antibody)
heavy: not shown
light: QVQLVQSGAEVKKPGASVKVSCKASGYTFTSYWMHWVRQAPGQGLEWMGNIYPGSGGTNYAEKFKNRVTMTRDTSISTAYMELSRLRSDDTAVYYCARSGGPYFFDYWGQGTLVTVSSAGGGGSGGGGSGGGGSDIVMTQSPLSLPVTPGEPASISCRSSQNIVHNNGITYLEWYLQKPGQSPQLLIYKVSDRFSGVPDRFSGSGSGTDFTLKISRVEAEDVGVYYCFQGSHIPPTFGQGTKVEIKRTVAAPSVFIFPPSDEQLKSGTASVVCLLNNFYPREAKVQWKVDNALQSGNSQESVTEQDSKDSTYSLSSTLTLSKADYEKHKVYACEVTHQGLSSPVTKSFNRGEC
Consider B1, for which the “cytotoxicity, 51Cr release assay (Colo-Tc, EGFR/CHO and CHO cells)” value is ~0.002 fold of the concentration of Ex3.
